The target of test [1] is HLA-A*24:02. The test can be described thus: IEDB peptide-MHC binding, purified MHC/competitive/fluorescence; ≥ and ≤ were set here for values at or beyond the usual limits of such assays.
Test [2] has as its target HLA-A*02:01. The test is described as above. The note with it: source organism: Zaire ebolavirus.
Test [3] addresses HLA-B*15:03. Briefly: IEDB peptide-MHC binding, purified MHC/competitive/radioactivity; filed as Kd, often an IC50 or EC50 that approximates it; ≥ and ≤ were set here for values at or beyond the usual limits of such assays.
The target of test [4] is HLA-B*53:01. The description is as above.
For test [5], the target named is HLA-B*07:02. Described as above.
The target of test [6] is HLA-B*35:01. The description is as above.
The target in test [7] is HLA-B*51:01. Briefly: IEDB peptide-MHC binding, purified MHC/competitive/fluorescence; filed as Kd, often an IC50 or EC50 that approximates it; ≥ and ≤ were set here for values at or beyond the usual limits of such assays.
Test [8] concerns the target HLA-A*32:01. The test can be described thus: IEDB peptide-MHC binding, purified MHC/competitive/radioactivity; filed as Kd, often an IC50 or EC50 that approximates it; ≥ and ≤ were set here for values at or beyond the usual limits of such assays. The settings on record: source organism: Vaccinia virus WR.
In test [9] the target is HLA-A*24:03. Briefly: IEDB peptide-MHC binding, purified MHC/direct/fluorescence; filed as Kd, often an IC50 or EC50 that approximates it; ≥ and ≤ were set here for values at or beyond the usual limits of such assays.
Test [10] has as its target HLA-B*44:03. The test can be described thus: IEDB peptide-MHC binding, purified MHC/competitive/radioactivity; filed as Kd, often an IC50 or EC50 that approximates it; ≥ and ≤ were set here for values at or beyond the usual limits of such assays.
For test [11], the target named is HLA-B*44:02. Described as above.
In test [12] the target is HLA-B*40:01. The description is as above.
For test [13], the target named is HLA-B*51:01. The description is as above.
Test [14] deals with HLA-A*01:01. The test is described as above. The note with it: source organism: Dengue virus 1 Brazil/97-11/1997.
For test [15], the target named is HLA-B*08:01. The test is described as above.
For test [16], the target named is HLA-B*15:01. The test can be described thus: IEDB peptide-MHC binding, purified MHC/competitive/fluorescence; filed as Kd, often an IC50 or EC50 that approximates it; ≥ and ≤ were set here for values at or beyond the usual limits of such assays.
The target of test [17] is HLA-A*26:01. The test can be described thus: IEDB peptide-MHC binding, purified MHC/direct/fluorescence; filed as Kd, often an IC50 or EC50 that approximates it; ≥ and ≤ were set here for values at or beyond the usual limits of such assays. The settings on record: source organism: Yersinia pestis.
In test [18] the target is HLA-B*40:01. The description is as above. The settings on record: source organism: Yersinia pestis.
Test [19] addresses HLA-A*31:01. Described as above. The settings on record: source organism: Yersinia pestis.
The target of test [20] is HLA-B*58:01. The test is described as above. The settings on record: source organism: Yersinia pestis.
Test [21] addresses HLA-B*07:02. Described as above. The settings on record: source organism: Yersinia pestis.
The target in test [22] is HLA-A*69:01. The test is described as above. The note with it: source organism: Yersinia pestis.
Test [23] has as its target HLA-B*27:05. The test is described as above. The settings on record: source organism: Yersinia pestis.
Test [24] deals with HLA-B*15:01. The description is as above. The note with it: source organism: Yersinia pestis.
Test [25] concerns the target HLA-A*03:01. The test is described as above. The settings on record: source organism: Yersinia pestis.
The target of test [26] is HLA-A*01:01. The test is described as above. The settings on record: source organism: Yersinia pestis.
In test [27] the target is HLA-B*08:01. The test is described as above. The settings on record: source organism: Yersinia pestis.
Test [28] deals with HLA-A*11:01. Described as above. The note with it: source organism: Yersinia pestis.
Test [29] deals with HLA-A*02:01. Described as above. The settings on record: source organism: Yersinia pestis.
The mark [30] stands for this setting: source organism: Zaire ebolavirus.
Setting [31] is: source organism: Vaccinia virus Copenhagen.
The mark [32] stands for this setting: source organism: Dengue virus 4 Philippines/H241/1956.
Setting [33] is: source organism: Vaccinia virus WR.
Where [34] appears, read: source organism: Dengue virus 3 Martinique/1243/1999.
[35] abbreviates: source organism: Dengue virus 3 Singapore/8120/1995.
Where [36] appears, read: source organism: Dengue virus 1 Brazil/97-11/1997.
[37] abbreviates: source organism: Dengue virus 2 Jamaica/1409/1983.
Setting [38] is: source organism: Dengue virus 4 Dominica/814669/1981.
Where [39] appears, read: source organism: Sudan ebolavirus.
Where [40] appears, read: source organism: Yersinia pestis.

As usually defined, the IC50 is the point on the concentration scale where inhibition reaches its midpoint. High values mean weaker potency in that assay, low ones greater potency in that assay. Turning to AENTNTSKS, the IC50 in test [1] (setting [30]) was not below 534000 nM; in test [2], not below 187000 nM.
The term Kd denotes the concentration at which binding is half-saturated. Take LLVQRVTSV: the Kd in [3] (setting [31]) was determined as 285 nM.
In the case of IFVIDNVHTW, the Kd in test [4] (setting [32]) was 500 nM.
As for GPLRMVLAF, the dissociation constant (Kd) in test [5] (setting [32]) worked out at 5.58 nM; in [4] (setting [32]) it was 122 nM; in test [6] (setting [32]) it was 1230 nM.
With MQYVPAWIV, the Kd in test [7] (source organism: Bacillus cereus 95/8201) is not below 20000 nM.
In test [1] (setting [33]), PKRSVMLIG registered an IC50 of 38400 nM.
Consider RPTPTGTVM, for which the Kd is 1.98 nM in [5] (setting [34]) and 1430 nM in [6] (setting [34]).
On to FLVIAINAM, for which the Kd in test [3] (setting [33]) was found to be 440 nM.
For LLYMFPNLF, the equilibrium dissociation constant (Kd) in test [8] was found to be 89.7 nM; in test [3] (setting [33]) it was 0.109 nM.
Turning to RYGWSGAVF, the Kd in test [9] (source organism: Shigella sonnei Ss046) was not above 1 nM.
For RPMPGTRKVM, the Kd was 1.13 nM in [5] (setting [35]) and 8170 nM in test [6] (setting [35]).
Consider FFPMVTDAW, for which the Kd in test [9] (source organism: Vibrio parahaemolyticus) was not above 1 nM.
As for SDTRSVNSF, the Kd in [3] (setting [31]) came out at 92.7 nM.
Take SECPNERRAW: the results for the Kd in [10] (setting [32]) and in [11] (setting [32]) were 56.5 nM and 74.7 nM, respectively.
Take RSRWSRKMLM: the dissociation constant Kd in [5] (setting [36]) came to 154 nM.
As to FETYQLWTAL, the Kd in [12] (setting [34]) turned out to be 10.4 nM; in test [13] (setting [34]) it was 1900 nM.
Take IPMTGPLVA: the Kd in test [5] (setting [37]) came out at 50.7 nM.
On to NATDTWVTY, for which the Kd in test [14] was determined as 144 nM; in test [6] (setting [36]), 20.9 nM.
For AERIGEPDY, the Kd in test [10] (setting [38]) is 797 nM; in test [11] (setting [38]), 203 nM.
Turning to FLFLNINHY, the dissociation constant Kd in test [3] (setting [33]) came to 6.46 nM.
Regarding SLIEVKTCLW, the Kd in test [10] (setting [32]) was 2330 nM.
Consider EPHWIAASI, for which the figures for the dissociation constant Kd in test [5] (setting [36]), in test [4] (setting [36]) and in [13] (setting [36]) were 267 nM, 333 nM and 172 nM, respectively.
Consider IMSLFSTSA, for which the equilibrium dissociation constant (Kd) in [3] (setting [33]) worked out at 7.67 nM.
AGIAWIPYF registered a concentration for half-maximal inhibition (IC50) in test [1] (setting [39]) of 2640 nM.
SEFQIYKKS: the equilibrium dissociation constant (Kd) in [10] (setting [37]) turned out to be 825 nM.
For the sequence LWFNYLFGG, the IC50 in [1] (source organism: Variola virus) came out at 57800 nM.
With SPGYVLGVF, the equilibrium dissociation constant (Kd) in test [5] (setting [38]) was found to be 8.71 nM.
As for LPVWLSYKV, the dissociation constant Kd in test [4] (setting [36]) was determined as 164 nM; in test [13] (setting [36]) it was 418 nM.
For the sequence HPGFTVIALF, the figures for the equilibrium dissociation constant (Kd) in [4] (setting [36]) and in test [6] (setting [36]) were 87.9 nM and 101 nM, respectively.
Consider FARDNQISF, for which, in test [3] (setting [33]), the Kd came out at 0.195 nM.
The sequence PWTKISETK came in with a half-inhibitory concentration (IC50) in [1] (setting [33]) not below 169000 nM.
Take IKYMIGNFM: the Kd in test [3] (setting [33]) amounted to 2.15 nM.
Turning to SPGTSGSPII, in test [5] (source organism: Dengue virus 2 16681-PDK53), the Kd is 132 nM.
As to NELNYVLWE, in test [10] (setting [32]), the Kd was determined as 159 nM.
For the sequence LPPEKCDTLL, the values for the Kd in test [15] (setting [34]) and in [6] (setting [34]) were 707 nM and 5980 nM, respectively.
LEVNNPTPF came in with a dissociation constant (Kd) in [16] (setting [40]) of 98 nM.
For TTGKLIWKV, the figures for the 50% inhibitory concentration (IC50) in test [1] (setting [30]) and in test [2] were 62700 nM and 1240 nM, respectively.
In turn, RFLVINRLG yielded a half-inhibitory concentration (IC50) in test [1] (setting [33]) of 16400 nM.
Consider TEEIAVQNW, for which the Kd in [10] (setting [37]) stood at 36.8 nM; in test [11] (setting [37]), 15.4 nM.
Consider PPVNDLKYSW, for which the dissociation constant (Kd) in [4] (setting [32]) stood at 96.8 nM.
Turning to AETQHGTIV, the equilibrium dissociation constant (Kd) in test [12] (setting [37]) worked out at 15.1 nM; in test [10] (setting [37]) it was 225 nM.
On to MEGVFHTMW, for which the results for the Kd in test [10] (setting [32]) and in test [11] (setting [32]) were 2.58 nM and 17.4 nM, respectively.
Take KKNNRVLCF: the Kd in test [3] (setting [33]) came out at 1.59 nM.
For LSIPATLFVW, the dissociation constant Kd in test [4] (source organism: Dengue virus 1 Singapore/S275/1990) came out at 92.8 nM.
QESADSFLL: the IC50 in test [1] (setting [30]) is not below 138000 nM.
As to IETLMLLALI, the equilibrium dissociation constant (Kd) is 206 nM in test [12] (setting [36]) and 1050 nM in test [10] (setting [36]).
For the sequence QKIWMAPSL, the concentration for half-maximal inhibition (IC50) was not below 92400 nM in [1] (setting [30]) and 14500 nM in test [2].
On to DPASIAARGY, for which, in test [6] (setting [37]), the Kd is 5620 nM.
YVQLESRFT: the IC50 is not below 203000 nM in test [1] (setting [30]) and 39300 nM in [2].
GPLKLFMAL: the Kd in [5] (setting [37]) was 2.35 nM; in test [4] (setting [37]) it was 1010 nM; in [13] (setting [37]), not below 77400 nM; in test [15] (setting [37]), 19.3 nM.
For the sequence SKSRRLNLF, the equilibrium dissociation constant (Kd) in test [3] (setting [33]) was determined as 2.36 nM.
Consider QPMELKYSW, for which the dissociation constant (Kd) in test [4] (setting [34]) came to 7.76 nM.
WKVLSIMAF: the Kd in test [3] (setting [31]) came out at 9.29 nM.
KEYTYPDSL showed an IC50 in [1] (setting [30]) not below 184000 nM.
Turning to LTDEDKQNQ, the Kd in test [17], in test [18], in [19], in test [20], in test [21] and in [22] was not below 20000 nM in each case. The Kd in test [23], in test [24], in [25], in [26], in [27] and in test [28] was not below 20000 nM each time. The Kd in test [9] (setting [40]) and in test [29] was not below 20000 nM in each case.
Turning to SPGKFWNTTI, the Kd in [5] (setting [36]) was 5.6 nM.
For LSYGPAFIV, in test [7] (source organism: Entamoeba histolytica HM-1:IMSS), the equilibrium dissociation constant (Kd) was not below 20000 nM.
TQGYFPDWQNY gave a Kd in test [16] (source organism: Human immunodeficiency virus 1) of 84.6 nM.
On to EPGQLKLNW, for which, in test [4] (setting [37]), the dissociation constant Kd was 33.1 nM.
Turning to QPFLALGFFL, the dissociation constant Kd in test [5] (setting [34]) is 577 nM; in test [13] (setting [34]) it was not below 69600 nM; in test [6] (setting [34]), 200 nM.
Regarding TEIASLPTYL, the equilibrium dissociation constant (Kd) in test [12] (setting [32]) came to 15 nM; in test [10] (setting [32]) it was 222 nM; in test [11] (setting [32]), 34.7 nM.
In [1] (setting [39]), PSATKRWGF returned a half-maximal inhibitory concentration (IC50) of 10200 nM.
On to LENDEDCAHW, for which the Kd in test [10] (setting [37]) and in test [11] (setting [37]) was 103 nM throughout.
